{"source": "the supplement of paper PMC11246515", "test": "total protein half-life in vivo (active degradation + dilution); higher = more stable protein", "key": {"[1]": {"conditions": "E. coli NCM3722 delta-clpP delta-lon delta-hslV, growth: N-lim chemostat, doubling time 6 h"}, "[2]": {"conditions": "E. coli NCM3722 delta-clpP, growth: N-lim chemostat, doubling time 6 h"}, "[3]": {"conditions": "E. coli NCM3722 delta-hslV, growth: N-lim chemostat, doubling time 6 h"}, "[4]": {"conditions": "E. coli NCM3722 delta-lon, growth: N-lim chemostat, doubling time 6 h"}, "[5]": {"conditions": "E. coli NCM3722 delta-smpB, growth: N-lim chemostat, doubling time 6 h"}, "[6]": {"conditions": "wild type E. coli NCM3722, growth: C-lim chemostat, doubling time 3 h"}, "[7]": {"conditions": "wild type E. coli NCM3722, growth: C-lim chemostat, doubling time 6 h"}, "[8]": {"conditions": "wild type E. coli NCM3722, growth: C-lim chemostat, doubling time 12 h"}, "[9]": {"conditions": "wild type E. coli NCM3722, growth: N-lim chemostat, doubling time 6 h"}, "[10]": {"conditions": "wild type E. coli NCM3722, growth: N-lim chemostat, doubling time 12 h"}, "[11]": {"conditions": "wild type E. coli NCM3722, growth: P-lim chemostat, doubling time 6 h"}, "[12]": {"conditions": "wild type E. coli NCM3722, growth: P-lim chemostat, doubling time 12 h"}}, "note": "± gives the standard deviation of the averaged measurements.", "data": [{"sequence": "MSQLPGLSRETRESIAMYHLRVPQTEEELERYYQFRWEMLRKPLHQPKGSERDAWDAMAHHQMVVDEQGNLVAVGRLYINADNEASIRFMAVHPDVQDKGLGTLMAMTLESVARQEGVKRVTCSAREDAVEFFAKLGFVNQGEITTPTTTPIRHFLMIKPVATLDDILHRGDWCAQLQQAWYEHIPLSEKMGVRIQQYTGQKFITTMPETGNQNPHHTLFAGSLFSLATLTGWGLIWLMLRERHLGGTIILADAHIRYSKPISGKPHAVADLGALSGDLDRLARGRKARVQMQVEIFGDETPGAVFEGTYIVLPAKPFGPYEEGGNEEE [P0ADQ2]", "values": [{"measurement": "total protein half-life in vivo", "setting": "[1]", "value": "5.56 ± 0.43", "unit": "h"}, {"measurement": "total protein half-life in vivo", "setting": "[2]", "value": "4.46 ± 0.32", "unit": "h"}, {"measurement": "total protein half-life in vivo", "setting": "[3]", "value": "5.1 ± 0.92", "unit": "h"}, {"measurement": "total protein half-life in vivo", "setting": "[4]", "value": "4.93 ± 0.26", "unit": "h"}, {"measurement": "total protein half-life in vivo", "setting": "[5]", "value": "4.38 ± 0.27", "unit": "h"}, {"measurement": "total protein half-life in vivo", "setting": "[6]", "value": "2.8559 ± 0.0026", "unit": "h"}, {"measurement": "total protein half-life in vivo", "setting": "[7]", "value": "5.57 ± 0.27", "unit": "h"}, {"measurement": "total protein half-life in vivo", "setting": "[8]", "value": "9.83 ± 0.3", "unit": "h"}, {"measurement": "total protein half-life in vivo", "setting": "[9]", "value": "4.71 ± 0.12", "unit": "h"}, {"measurement": "total protein half-life in vivo", "setting": "[10]", "value": "8.84 ± 1.4", "unit": "h"}, {"measurement": "total protein half-life in vivo", "setting": "[11]", "value": "5.88 ± 0.23", "unit": "h"}, {"measurement": "total protein half-life in vivo", "setting": "[12]", "value": "11.8 ± 0.52", "unit": "h"}]}, {"sequence": "MSQLVYFSSSSENTQRFIERLGLPAVRIPLNERERIQVDEPYILIVPSYGGGGTAGAVPRQVIRFLNDEHNRALLRGVIASGNRNFGEAYGRAGDVIARKCGVPWLYRFELMGTQSDIENVRKGVTEFWQRQPQNA [P0A772]", "values": [{"measurement": "total protein half-life in vivo", "setting": "[1]", "value": "4.46 ± 0.33", "unit": "h"}]}, {"sequence": "MSQPITRENFDEWMIPVYAPAPFIPVRGEGSRLWDQQGKEYIDFAGGIAVNALGHAHPELREALNEQASKFWHTGNGYTNEPVLRLAKKLIDATFADRVFFCNSGAEANEAALKLARKFAHDRYGSHKSGIVAFKNAFHGRTLFTVSAGGQPAYSQDFAPLPADIRHAAYNDINSASALIDDSTCAVIVEPIQGEGGVVPASNAFLQGLRELCNRHNALLIFDEVQTGVGRTGELYAYMHYGVTPDLLTTAKALGGGFPVGALLATEECARVMTVGTHGTTYGGNPLASAVAGKVLELINTPEMLNGVKQRHDWFVERLNTINHRYGLFSEVRGLGLLIGCVLNADYAGQAKQISQEAAKAGVMVLIAGGNVVRFAPALNVSEEEVTTGLDRFAAACEHFVSRGSS", "values": [{"measurement": "total protein half-life in vivo", "setting": "[1]", "value": "3.59 ± 0.43", "unit": "h"}, {"measurement": "total protein half-life in vivo", "setting": "[2]", "value": "3.17 ± 0.87", "unit": "h"}, {"measurement": "total protein half-life in vivo", "setting": "[3]", "value": "2.47 ± 0.25", "unit": "h"}, {"measurement": "total protein half-life in vivo", "setting": "[4]", "value": "2.97 ± 0.5", "unit": "h"}, {"measurement": "total protein half-life in vivo", "setting": "[5]", "value": "2.79 ± 0.15", "unit": "h"}, {"measurement": "total protein half-life in vivo", "setting": "[6]", "value": "3.106 ± 0.012", "unit": "h"}, {"measurement": "total protein half-life in vivo", "setting": "[7]", "value": "4.44 ± 0.17", "unit": "h"}, {"measurement": "total protein half-life in vivo", "setting": "[8]", "value": "7.4513 ± 0.0042", "unit": "h"}, {"measurement": "total protein half-life in vivo", "setting": "[9]", "value": "2.67 ± 0.12", "unit": "h"}, {"measurement": "total protein half-life in vivo", "setting": "[10]", "value": "3.532 ± 0.018", "unit": "h"}, {"measurement": "total protein half-life in vivo", "setting": "[11]", "value": "5.09 ± 0.52", "unit": "h"}, {"measurement": "total protein half-life in vivo", "setting": "[12]", "value": "9.766 ± 0.073", "unit": "h"}]}, {"sequence": "MSQQVIIFDTTLRDGEQALQASLSVKEKLQIALALERMGVDVMEVGFPVSSPGDFESVQTIARQVKNSRVCALARCVEKDIDVAAESLKVAEAFRIHTFIATSPMHIATKLRSTLDEVIERAIYMVKRARNYTDDVEFSCEDAGRTPIADLARVVEAAINAGATTINIPDTVGYTMPFEFAGIISGLYERVPNIDKAIISVHTHDDLGLAVGNSLAAVHAGARQVEGAMNGIGERAGNCSLEEVIMAIKVRKDILNVHTAINHQEIWRTSQLVSQICNMPIPANKAIVGSGAFAHSSGIHQDGVLKNRENYEIMTPESIGLNQIQLNLTSRSGRAAVKHRMDEMGYKESEYNLDNLYDAFLKLADKKGQVFDYDLEALAFIGKQQEEPEHFRLDYFSVQSGSNDIATAAVKLACGEEVKAEAANGNGPVDAVYQAINRITEYNVELVKYSLTAKGHGKDALGQVDIVANYNGRRFHGVGLATDIVESSAKAMVHVLNNIWRAAEVEKELQRKAQHNENNKETV", "values": [{"measurement": "total protein half-life in vivo", "setting": "[1]", "value": "4.72 ± 0.57", "unit": "h"}, {"measurement": "total protein half-life in vivo", "setting": "[2]", "value": "4.48 ± 0.55", "unit": "h"}, {"measurement": "total protein half-life in vivo", "setting": "[3]", "value": "1.61 ± 0.08", "unit": "h"}, {"measurement": "total protein half-life in vivo", "setting": "[4]", "value": "1.77 ± 0.1", "unit": "h"}, {"measurement": "total protein half-life in vivo", "setting": "[5]", "value": "1.492 ± 0.0018", "unit": "h"}, {"measurement": "total protein half-life in vivo", "setting": "[6]", "value": "2.21 ± 0.067", "unit": "h"}, {"measurement": "total protein half-life in vivo", "setting": "[7]", "value": "3.71 ± 0.24", "unit": "h"}, {"measurement": "total protein half-life in vivo", "setting": "[8]", "value": "4.45 ± 0.23", "unit": "h"}, {"measurement": "total protein half-life in vivo", "setting": "[9]", "value": "1.63 ± 0.16", "unit": "h"}, {"measurement": "total protein half-life in vivo", "setting": "[10]", "value": "1.92 ± 0.043", "unit": "h"}, {"measurement": "total protein half-life in vivo", "setting": "[11]", "value": "3.83 ± 0.44", "unit": "h"}, {"measurement": "total protein half-life in vivo", "setting": "[12]", "value": "6.6 ± 0.52", "unit": "h"}]}, {"sequence": "MSQRGLEALLRPKSIAVIGASMKPNRAGYLMMRNLLAGGFNGPVLPVTPAWKAVLGVLAWPDIASLPFTPDLAVLCTNASRNLALLEELGEKGCKTCIILSAPASQHEDLRACALRHNMRLLGPNSLGLLAPWQGLNASFSPVPIKRGKLAFISQSAAVSNTILDWAQQRKMGFSYFIALGDSLDIDVDELLDYLARDSKTSAILLYLEQLSDARRFVSAARSASRNKPILVIKSGRSPAAQRLLNTTAGMDPAWDAAIQRAGLLRVQDTHELFSAVETLSHMRPLRGDRLMIISNGAAPAALALDALWSRNGKLATLSEETCQKLRDALPEHVAISNPLDLRDDASSEHYIKTLDILLHSQDFDALMVIHSPSAAAPATESAQVLIEAVKHHPRSKYVSLLTNWCGEHSSQEARRLFSEAGLPTYRTPEGTITAFMHMVEYRRNQKQLRETPALPSNLTSNTAEAHLLLQQAIAEGATSLDTHEVQPILQAYGMNTLPTWIASDSTEAVHIAEQIGYPVALKLRSPDIPHKSEVQGVMLYLRTANEVQQAANAIFDRVKMAWPQARVHGLLVQSMANRAGAQELRVVVEHDPVFGPLIMLGEGGVEWRPEDQAVVALPPLNMNLARYLVIQGIKSKKIRARSALRPLDVAGLSQLLVQVSNLIVDCPEIQRLDIHPLLASGSEFTALDVTLDISPFEGDNESRLAVRPYPHQLEEWVELKNGERCLFRPILPEDEPQLQQFISRVTKEDLYYRYFSEINEFTHEDLANMTQIDYDREMAFVAVRRIDQTEEILGVTRAISDPDNIDAEFAVLVRSDLKGLGLGRRLMEKLITYTRDHGLQRLNGITMPNNRGMVALARKLGFNVDIQLEEGIVGLTLNLAQREES", "values": [{"measurement": "total protein half-life in vivo", "setting": "[1]", "value": "5.32 ± 0.66", "unit": "h"}, {"measurement": "total protein half-life in vivo", "setting": "[2]", "value": "5.3 ± 0.37", "unit": "h"}, {"measurement": "total protein half-life in vivo", "setting": "[3]", "value": "4.54 ± 0.15", "unit": "h"}, {"measurement": "total protein half-life in vivo", "setting": "[4]", "value": "4.46 ± 0.67", "unit": "h"}, {"measurement": "total protein half-life in vivo", "setting": "[5]", "value": "4.92 ± 0.72", "unit": "h"}, {"measurement": "total protein half-life in vivo", "setting": "[6]", "value": "3.28 ± 0.35", "unit": "h"}, {"measurement": "total protein half-life in vivo", "setting": "[7]", "value": "6.133 ± 0.015", "unit": "h"}, {"measurement": "total protein half-life in vivo", "setting": "[8]", "value": "12.2 ± 0.95", "unit": "h"}, {"measurement": "total protein half-life in vivo", "setting": "[9]", "value": "5 ± 0.23", "unit": "h"}, {"measurement": "total protein half-life in vivo", "setting": "[10]", "value": "7.46 ± 0.52", "unit": "h"}, {"measurement": "total protein half-life in vivo", "setting": "[11]", "value": "6.35 ± 0.48", "unit": "h"}, {"measurement": "total protein half-life in vivo", "setting": "[12]", "value": "14.1 ± 0.23", "unit": "h"}]}, {"sequence": "MSQTSTLKGQCIAEFLGTGLLIFFGVGCVAALKVAGASFGQWEISVIWGLGVAMAIYLTAGVSGAHLNPAVTIALWLFACFDKRKVIPFIVSQVAGAFCAAALVYGLYYNLFFDFEQTHHIVRGSVESVDLAGTFSTYPNPHINFVQAFAVEMVITAILMGLILALTDDGNGVPRGPLAPLLIGLLIAVIGASMGPLTGFAMNPARDFGPKVFAWLAGWGNVAFTGGRDIPYFLVPLFGPIVGAIVGAFAYRKLIGRHLPCDICVVEEKETTTPSEQKASL [P0AER0]", "values": [{"measurement": "total protein half-life in vivo", "setting": "[6]", "value": 2.07, "unit": "h"}, {"measurement": "total protein half-life in vivo", "setting": "[7]", "value": 4.17, "unit": "h"}, {"measurement": "total protein half-life in vivo", "setting": "[8]", "value": "6.363 ± 0.04", "unit": "h"}]}]}
